Experimental data from patent publication US8871909B2, “Antibodies inhibiting c-Met dimerization and uses thereof” (Pierre Fabre Medicament, priority 2007, dated 2014).

Key:
HUVEC [1] = assay: HUVEC tube formation; assay type: cell-based; details: HGF 50 ng/ml
Procedure: For evaluation of HUVEC tube formation, 25000 cells incubated 30 min with antibodies to be tested were plated in 48-well plates coated with matrigel. Then HGF 50 ng/ml was added and plates were incubated at 37° C. Medium was then harvested and […] CMFDA was added for 15 min before microscopic observation.

c-Met-Fc-Tag His = target: T1, c-Met-Fc-Tag His (Homo sapiens, UniProt P08581); assay: BIAcore epitope mapping on captured c-Met-Fc; assay type: binding
T1 construct: c-Met extracellular domain fusion protein (10-15 g/dose/mouse) (R&D Systems, Catalog #358MT); purchased R&D systems 358-MT-CF
T1 sequence (P08581 25-932 limits assumed): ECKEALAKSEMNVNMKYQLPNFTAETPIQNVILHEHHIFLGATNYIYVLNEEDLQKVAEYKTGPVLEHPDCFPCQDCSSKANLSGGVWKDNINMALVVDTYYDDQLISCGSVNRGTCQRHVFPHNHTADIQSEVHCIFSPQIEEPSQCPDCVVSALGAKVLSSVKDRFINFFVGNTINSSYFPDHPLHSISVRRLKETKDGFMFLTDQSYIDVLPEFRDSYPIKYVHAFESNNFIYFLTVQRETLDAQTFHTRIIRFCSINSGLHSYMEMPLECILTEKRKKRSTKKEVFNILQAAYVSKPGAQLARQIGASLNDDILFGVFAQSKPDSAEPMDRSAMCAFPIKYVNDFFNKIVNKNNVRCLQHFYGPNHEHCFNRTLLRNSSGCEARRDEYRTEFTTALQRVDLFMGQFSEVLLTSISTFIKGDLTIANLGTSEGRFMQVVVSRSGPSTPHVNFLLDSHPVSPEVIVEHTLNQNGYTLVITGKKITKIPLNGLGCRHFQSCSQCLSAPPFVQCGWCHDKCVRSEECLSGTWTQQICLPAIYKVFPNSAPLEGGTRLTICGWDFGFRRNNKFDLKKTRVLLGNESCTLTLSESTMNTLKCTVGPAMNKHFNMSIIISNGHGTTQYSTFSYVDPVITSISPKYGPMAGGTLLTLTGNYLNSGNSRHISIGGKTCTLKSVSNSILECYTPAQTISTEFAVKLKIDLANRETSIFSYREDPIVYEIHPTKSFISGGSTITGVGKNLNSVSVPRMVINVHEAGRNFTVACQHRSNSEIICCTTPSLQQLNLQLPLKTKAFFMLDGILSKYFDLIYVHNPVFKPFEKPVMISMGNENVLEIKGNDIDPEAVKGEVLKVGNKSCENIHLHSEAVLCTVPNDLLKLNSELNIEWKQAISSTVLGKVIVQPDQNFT
From the text: A couple of antibodies unable to bind at the same time on the antigen molecule are classified in the same group (identical or neighbouring binding sites). At the opposite when their respective binding sites are sufficiently distant to allow a simultaneous binding of both antibodies these later are classified into two different groups. In such experiments, the antigen is commonly used as the ligand (immobilized on the sensorchip) and the antibodies are used without any labelling as analytes (solution phase).
All the experiments described have been done on a BIAcore X instrument (GE Healthcare Europe GmbH). A CM5 sensorchip (BIAcore) activated by a mouse anti-Tag-6His Mab (R&D System ref. MAB050) has been prepared following the manufacturer instructions by using the amine coupling kit (BIAcore). The running buffer (HBS-EP) and regeneration buffer (Glycine, HCl) are from BIAcore. A recombinant soluble version of the human HGF receptor produced as a chimeric molecule c-Met-Fc-Tag His was from R&D systems (ref. 358-MT-CF). […]
The ability of an antibody “A” to block the binding of an antibody “B” is calculated by the ratio BIA/C=(R2A/B/R1B)×100: where R2A/B is the response corresponding to the binding of the MAb “B” when it was injected after Mab “A” and R1B is the response corresponding to the binding of the MAb “B” when it was injected first. […]

HUVEC [2] = assay: HUVEC proliferation ([3H]thymidine); assay type: cell-based; details: HGF 20 ng/ml, 0.15 to 40 μg/ml
Procedure: For proliferation experiments, 7500 HUVEC were plated in each well of a 96 well plate previously coated with laminin. Cells were grown 24 hours of EMB-2 assay medium supplemented with 0.5% FBS and heparin. Then, MAbs to be tested (0.15 to 40 μg/ml) were added for 1 h before addition of 20 ng/ml of HGF. After 24 additional hours, cells were pulsed with 0.5 μCi of [^3H] Thymidine. The magnitude of [^3H] Thymidine incorporated was quantified by liquid scintillation counting. In This experiment the 9G4 MAb is an irrelevant antibody used as an IgG1 isotype control.

SK-HEP-1 cells = assay: Scatter assay; assay type: cell-based; details: SK-HEP-1, antibody 10 μg/ml; for inhibitory effect on cell scattering in presence of HGF: HGF 100 ng/ml; for agonist effect on cell scattering, alone: no HGF
Procedure: SK-HEP-1 cells were seeded at low density (1·10^4 cells/well) in a 24-well plate in DMEM with 10% FCS and grown for 24 hours before addition, at the same time, of HGF (100 ng/ml) and antibodies to be tested (10 μg/ml). After 72 hours incubation, colonies were fixed and stained with 0.2% crystal violet in methanol and assessed for scattering visually. Each tested condition was tested as a triplicate and 3 independent experiments were performed.

HGF-cMet = target: T2, HGF-cMet (Homo sapiens, UniProt P08581); assay: HGF-cMet competition assay (ELISA); assay type: binding; details: purified murine antibodies
T2 construct: recombinant c-Met-Extra-Cellular Domain (ECD) fused to an human IgG Fc domain
T2 sequence (P08581 25-932 limits assumed): as above
From the text: FIG. 54: HGF-cMet competition assay. In this ELISA-based assay, recombinant Fc-cMET residual binding to plastic coated HGF in the presence of purified murine monoclonal antibodies 11E1, 224G11 and 227H1 was detected with […] and measured at 450 nm;
FIG. 58: HGF-cMet competition assay of 227H1 murine and recombinant antibodies. In this ELISA-based assay, recombinant Fc-cMet residual binding to plastic coated HGF in the presence of the different forms of the 227H1 antibody was detected with a biotinylated unrelated anti-cMet antibody. Purified murine 227H1 monoclonal antibody, chimeric and HZ4VH-derived humanized 227H1-derived recombinant antibodies were tested and compared for their abilities to compete with HGF-cMet binding when measured at 450 nm;
Humanization of the anti-cMet antibodies were performed independently for each chain and sequentially, regarding to the analysed amino acids in each variable domain. The humanization process was evaluated in a first attempt in an ELISA-based binding assay to recombinant Fc-cMet; binding activities the humanized antibodies being compared to the recombinant chimeric antibody. In a second attempt, anti-cMet humanized antibodies were evaluated for their abilities to displace the Fc-cMet binding onto plastic-coated recombinant HGF; this competition assay allowing the direct comparison of murine, chimeric and humanized versions of the anti-cMet antibodies.
These two assays were used to characterize the recombinant chimeric and humanized versions of the murine anti-cMet antibodies. To this end, briefly, anti-cMet variable domains, either murine or humanized, were cloned into LONZA's pCONplus expression vectors series and recombinant IgG1/κ-derived antibodies were expressed in CHO cells. […] Both direct binding and HGF-competition assays were assessed to better characterize recombinant chimeric or humanized versions.

NCI-H441 [3] = assay: NCI-H441 xenograft model (Example 11)
From the text: The evaluation of anti-c-met antibodies on the in vivo activity of this non autocrine cell line could give some insights about their potency to impact on c-met dimerization.

U87-MG = assay: In vivo combination of 224G11 and Temozolomide on U87MG xenograft model; parameters: species or system Athymic nude mice; details: D22 to D32; Temozolomide 5 mg/kg i.p.
Procedure: U87-MG cells from ATCC were routinely cultured in DMEM medium, 10% FCS, 1% L-Glutamine. Cells were split two days before engraftment being in exponential phase of growth. Five million U87-MG cells were engrafted to Athymic nude mice. […] Mice were treated i.p. either with a loading dose of 2 mg of 224G11 Mab/mouse and then twice a week with 1 mg of antibody/mouse or with 3 injections of Temozolomide (D19, D26, D33) at 5 mg/kg. A third group administered with the combine treatment was also included. Temozolomide was given by i.p. injections. Tumor volume was measured twice a week and calculated by the formula: π/6×length×width×height and animal weights were monitored every day over the period of Temozolomide treatment. Statistical analysis was performed at each measured time using either a t-test or a Mann-Whitney test. […] Results are represented in FIG. 48.

NCI-H441 [4] = assay: In vivo combination of 224G11 and Docetaxel on NCI-H441 xenograft model; parameters: species or system Athymic nude mice; details: D11 to D35; Docetaxel 7.5 mg/kg i.p.
Procedure: NCI-H441 cells from ATCC were routinely cultured in RPMI 1640 medium, 10% FCS, 1% L-Glutamine. Cells were split two days before engraftment being in exponential phase of growth. Nine million NCI-H441 cells were engrafted to Athymic nude mice. […] Mice were treated i.p. either with a loading dose of 2 mg of 224G11 Mab/mouse and then twice a week with 1 mg of antibody/mouse or with 4 injections of Docetaxel (D5, D12, D19, D26) at 7.5 mg/kg. A third group administered with the combine treatment was also included. Docetaxel was given by i.p. injections. Tumor volume was measured twice a week and calculated by the formula: π/6×length×width×height and animal weights were monitored every day over the period of Docetaxel treatment. Statistical analysis was performed at each measured time using either a t-test or a Mann-Whitney test. […] Results are represented in FIG. 47.

B1: 11E1: murine anti-c-Met monoclonal antibody, IgG1 kappa; heavy chain SEQ ID No. 62, light chain SEQ ID No. 63 (antibody, V domains shown)
VH: QVQLQQSGAELAKPGASVKMSCKASGYTFTSYWMNWVKQRPGQGLEWIGYINPTTGSTDYNQKLKDKATLTADKSSNTAYMQLSSLTSEDSAVYYCAIGGYGSWFAYWGQGTLVTVSA
VL: QIVLTQSPAIMSASPGEKVTLTCSASSSVSSTYLYWYQQKPGSSPKLWIYTTSILASGVPARFSGSGSGTSYSLTISSMETEDAASYFCHQWSSYPFTFGSGTKLDIK
modifications: mus musculus
- effect on HGF-induced tube formation (HUVEC [1]): inhibit dramatically
- BIA/C ratio, 2nd Ab (B) 5D5 (c-Met-Fc-Tag His; listed as antibody injected first (A), 5D5 second, 10 μg/ml, below 20% = blocks): 84.2%
- epitope mapping, binding sites (c-Met-Fc-Tag His; sequential injections of 5D5 and 11E1 on captured c-Met-Fc): bind clearly to two distant sites
- inhibition of HGF-induced HUVEC proliferation (HUVEC [2]): dramatic dose dependent inhibition
- inhibitory effect on cell scattering in presence of HGF (SK-HEP-1 cells): very significant inhibitory effect
- agonist effect on cell scattering, alone (SK-HEP-1 cells): No agonistic effect
- HGF-cMet binding competition activity (HGF-cMet): moderate, not full but reliable competitive activity
- inhibition of in vivo growth of NCI-H441 (NCI-H441 [3]): inhibited significantly

B2: 224G11: murine anti-c-Met monoclonal antibody, IgG1 kappa; heavy chain SEQ ID No. 18, light chain SEQ ID No. 21 (antibody, V domains shown)
VH: EVQLQQSGPELVKPGASVKISCKTSGYIFTAYTMHWVRQSLGESLDWIGGIKPNNGLANYNQKFKGKATLTVDKSSSTAYMDLRSLTSEDSAVYYCARSEITTEFDYWGQGTALTVSS
VL: DIVLTQSPASLAVSLGQRATISCRASESVDSYANSFMHWYQQKPGQPPKLLIYRASNLESGIPARFSGSGSRTDFTLTINPVEADDVATYYCQQSKEDPLTFGSGTKLEMK
modifications: mus musculus
- effect on HGF-induced tube formation (HUVEC [1]): inhibit dramatically
- inhibition of HGF-induced HUVEC proliferation (HUVEC [2]): dramatic dose dependent inhibition
- inhibitory effect on cell scattering in presence of HGF (SK-HEP-1 cells): very significant inhibitory effect
- agonist effect on cell scattering, alone (SK-HEP-1 cells): No agonistic effect
- maximum of HGF binding displacement (HGF-cMet; at high antibody concentration): 100%
- anti-tumor activity compared to the control group (U87-MG): significant anti-tumor activity
- inhibition of in vivo growth of NCI-H441 (NCI-H441 [3]): inhibited significantly
- anti-tumor activity compared to the control group (NCI-H441 [4]): significant anti-tumor activity
